{"source": "patent US20210332339", "test_in_all_cases": "cell_activity", "key": {"[1]": {"test_system": "ZFA36-ND4 (Artificial (ND4 from Clostridiales bacterium))"}, "[2]": {"test_system": "ZFA36-ND3 (Artificial (ND3 from Clostridium sp. 7_2_43FAA))"}, "ZFL1-ND1 (Artificial)": {"test_system": "ZFL1-ND1 (Artificial)", "sequence (chain, as listed by the source)": "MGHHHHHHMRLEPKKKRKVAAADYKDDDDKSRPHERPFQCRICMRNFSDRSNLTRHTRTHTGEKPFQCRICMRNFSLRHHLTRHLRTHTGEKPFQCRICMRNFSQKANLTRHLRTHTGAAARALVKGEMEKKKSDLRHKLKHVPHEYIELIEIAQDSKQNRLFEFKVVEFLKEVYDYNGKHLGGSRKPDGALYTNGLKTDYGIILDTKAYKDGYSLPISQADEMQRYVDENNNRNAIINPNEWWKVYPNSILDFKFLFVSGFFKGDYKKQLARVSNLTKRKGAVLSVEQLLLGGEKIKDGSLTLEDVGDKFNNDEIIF", "settings": "SSA, ZFL1-ND1 alone"}, "[3]": {"test_system": "ZFA36-ND1 (Artificial (ND1 from Bacillus sp. SGD-V-76))"}, "[4]": {"test_system": "ZFA36-FokI (FokI-ND ZFN) (Artificial)", "sequence (chain, as listed by the source)": "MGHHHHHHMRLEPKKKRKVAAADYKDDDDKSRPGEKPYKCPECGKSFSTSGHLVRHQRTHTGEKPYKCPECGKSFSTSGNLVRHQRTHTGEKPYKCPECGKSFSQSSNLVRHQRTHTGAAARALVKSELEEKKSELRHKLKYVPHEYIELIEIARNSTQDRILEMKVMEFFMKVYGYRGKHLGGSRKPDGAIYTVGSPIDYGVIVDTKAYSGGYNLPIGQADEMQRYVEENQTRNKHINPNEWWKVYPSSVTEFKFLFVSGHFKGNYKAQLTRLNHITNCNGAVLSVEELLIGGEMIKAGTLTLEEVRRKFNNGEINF"}, "[5]": {"test_system": "ZFA36-FokI-Sharkey (Artificial)", "sequence (chain, as listed by the source)": "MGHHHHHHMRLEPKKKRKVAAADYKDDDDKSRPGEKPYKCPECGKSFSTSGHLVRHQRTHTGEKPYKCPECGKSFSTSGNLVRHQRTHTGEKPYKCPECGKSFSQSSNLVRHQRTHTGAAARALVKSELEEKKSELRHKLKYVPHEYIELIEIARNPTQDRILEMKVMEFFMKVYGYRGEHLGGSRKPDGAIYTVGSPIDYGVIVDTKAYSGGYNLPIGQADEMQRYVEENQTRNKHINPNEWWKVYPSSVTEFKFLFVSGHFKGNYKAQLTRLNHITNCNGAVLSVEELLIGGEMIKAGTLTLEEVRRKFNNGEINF", "settings": "SSA reporter HEK293T"}, "[6]": {"test_system": "TALE-ROSA26-FokI left (Artificial)", "settings": "SSA reporter pair with right TALEN, close to reference"}, "[7]": {"test_system": "TALE-ROSA26-ND1 left (Artificial)", "settings": "SSA reporter pair with right TALEN"}, "[8]": {"test_system": "TALE-HPRT1-FokI left (Artificial)", "settings": "SSA reporter pair with right TALEN"}, "[9]": {"test_system": "TALE-HPRT1-ND1 left (Artificial)", "settings": "SSA reporter pair with right TALEN"}, "[10]": {"test_system": "TALE-HPRT1-ND1 right (Artificial)", "settings": "SSA reporter pair with left TALEN"}, "[11]": {"test_system": "TALE-HPRT1-FokI right (Artificial)", "settings": "SSA reporter pair with left TALEN"}, "[12]": {"test_system": "TALE-ROSA26-ND1 right (Artificial)", "settings": "SSA reporter pair with left TALEN"}, "[13]": {"test_system": "TALE-ROSA26-FokI right (Artificial)", "settings": "SSA reporter pair with left TALEN, close to reference"}}}
{"sequence": "ACCATCTTCCACTCTGAAGATGGA (double strand) [ZFA36-ZFA36 CHO-K1 1st site]", "values": [{"measurement": "activity (% mutated clones)", "setting": "[1]; CHO-K1, 0/16, no cleavage detected", "value": 0}, {"measurement": "activity (% mutated clones)", "setting": "[2]; CHO-K1, 0/15, Cel-I about 25-45% of FokI depending on site", "value": 0}]}
{"sequence": "GTCACCTTCNNNNNNGAAGATGGT (double strand) [ZFL1-6bp-ZFA36 site]", "values": [{"measurement": "binding signal", "setting": "ZFL1-ND1 (Artificial)", "value": 40, "unit": "%"}, {"measurement": "binding signal", "setting": "[3]; SSA, ZFA36-ND1 alone", "value": 90, "unit": "%"}, {"measurement": "binding signal", "setting": "[4]; SSA, ZFA36-FokI alone", "value": 35, "unit": "%"}]}
{"sequence": "ACCATCTTCNNNNNNGAAGATGGT (double strand) [ZFA36-6bp-ZFA36 site]", "values": [{"measurement": "binding signal (fold of ZFA36-FokI)", "setting": "[1]; SSA reporter HEK293T", "value": 0.2}, {"measurement": "binding signal (fold of ZFA36-FokI)", "setting": "[3]; SSA reporter HEK293T", "value": "> 1.2"}, {"measurement": "binding signal (fold of ZFA36-FokI)", "setting": "[5]", "value": 1.5}, {"measurement": "binding signal", "setting": "[4]; SSA reporter HEK293T, reference", "value": 1}, {"measurement": "binding signal (fold of ZFA36-FokI)", "setting": "[2]; SSA reporter HEK293T", "value": 0.2}]}
{"sequence": "ACCATCTTCAAGAGAGAAGATGGC (double strand) [ZFA36-ZFA36 CHO-K1 2nd site]", "values": [{"measurement": "activity (% mutated clones)", "setting": "[1]; CHO-K1, 0/14", "value": 0}, {"measurement": "activity (% mutated clones)", "setting": "[2]; CHO-K1, 3/16", "value": 18.8}]}
{"sequence": "TGCCCAGAAGACTCCCG (double strand) [ROSA26 left half-site]", "values": [{"measurement": "binding signal (fold of ZFA36-FokI)", "setting": "[6]", "value": 1}, {"measurement": "binding signal (fold of TALE-ROSA26-FokI)", "setting": "[7]", "value": 2}]}
{"sequence": "TGAACCAGGCTATGACCT (double strand) [HPRT1 left half-site]", "values": [{"measurement": "binding signal (fold of ZFA36-FokI)", "setting": "[8]", "value": 0.5}, {"measurement": "binding signal (fold of TALE-HPRT1-FokI)", "setting": "[9]", "value": 2}]}
{"sequence": "TCCTAATCACTATGTCGA (double strand) [HPRT1 right half-site (top strand)]", "values": [{"measurement": "binding signal (fold of TALE-HPRT1-FokI)", "setting": "[10]", "value": 2}, {"measurement": "binding signal (fold of ZFA36-FokI)", "setting": "[11]", "value": 0.5}]}
{"sequence": "GCCTCGACTTGCAGATCA (double strand) [ROSA26 right half-site (top strand)]", "values": [{"measurement": "binding signal (fold of TALE-ROSA26-FokI)", "setting": "[12]", "value": 2}, {"measurement": "binding signal (fold of ZFA36-FokI)", "setting": "[13]", "value": 1}]}
